Experimental data taken from patent US8440199B2, “Methods for mobilizing mesenchymal stem cells in a patient” (Imperial Innovations Limited, priority 2007, dated 2013).
Where two headings read alike, the source gives them in different places.

Columns and labels:
[1] = tested on: endothelial progenitor cells (EPC); test: Example 1: EPC mobilisation, hind limb bone marrow perfusion and circulating blood, CFU-EPC assay; conditions: for EPC mobilization: perfusate and blood
Description: 24 hours after the last injection, mice were administered a CXCR4 antagonist (AMD3100, 5 mg/kg i.p), or vehicle and blood was collected via cardiac puncture 1 hour later for enumeration of circulating leukocyte, HPC, EPC and MSC levels.
On day 5, mice were anaesthetized with urethane (25% 0.2 ml i.p.) and the femoral artery and vein exposed. The hind limb was isolated by occlusion of the external iliac artery, superficial epigastric and muscular branch with 5/0 braided silk suture. Polyethylene cannulae (0.61 mm OD, Portex, London, UK) were immediately inserted into the femoral artery and vein and tied in place with 5/0 braided silk suture. Perfusion buffer (modified Krebs-Ringer bicarbonate buffer) at 37° C. was infused (0.15 ml/min) via the arterial cannula and removed from the venous cannula using a Minipuls peristaltic pump (Anachem, Luton, UK). The hind limb was perfused for an initial 10 minutes to remove remaining blood from the vasculature and then perfused for a further 60 min with vehicle alone or AMD3100, a CXCR4 antagonist (0.1 mM, Sigma UK) infused over the first 10 minutes using an infusion/withdrawal pump (Harvard Instruments, U.K.).
The perfusate was collected and centrifuged and the cell pellet re-suspended in Dulbecco's modified eagles medium (DMEM) with 20% fetal bovine serum (FBS). A total cell count was performed before the perfusate was lysed for red blood cells, re-suspended again in DMEM (20% FBS) and used for assays outlined below to enumerate haematopoietic progenitor cells (CFU-HPC), endothelial progenitor cells (CFU-EPC), and leukocyte populations.
In some experiments blood was taken to enumerate HPCs, EPCs and leukocytes. A total cell count was performed on citrated blood before being lysed for red blood cells and re-suspended in DMEM (20% FBS).
Assay was performed in duplicate. Dishes were incubated for 7 days before media was changed, and then incubated for a further 14 days before the enumeration of late outgrowth endothelial progenitor cells. Early outgrowth endothelial progenitor cells were enumerated on day 5.
In each of the above assays, the total number of colony forming units mobilised is calculated according to the number of colonies per plate×by the total number of leukocytes mobilized/number of cells seeded.
Mice were anaesthetised and the femoral artery and vein was cannulated such that the femoral bone marrow could be perfused (Martin et al, (2006) Br. J. Haem. 134: 326-329). […]
Mice were injected i.p. with the CXCR4 antagonist, AMD3100, (or vehicle control) and 1 h later the mice were killed. Blood was collected by cardiac puncture and stem cell numbers in the blood were determined. […]

SPCs [2] = test: In situ perfusion of mouse hind limb, CFU-SPC in perfusate; type: in vivo, mice; conditions: for SPC mobilization from the bone marrow: FIG. 21d
Description: a, overview of procedures set up for identifying the direct mobilization of progenitor cells from the femoral bone marrow. […] 24 hours after the last injection, mice underwent perfusion of the right hind limb. CXCR4 antagonist (AMD3100 0.1 mM, closed bars) or vehicle (PBS, open bars) were then infused directly into the femoral artery for 10 minutes. The hind limb was then perfused for a further 50 minutes to allow collection of b, CFU-HPC; c, CFU-EPC; or d, CFU-SPC; via the femoral vein. CFU-HPC, CFU-EPC, and CFU-SPC are shown as total number of colonies collected in the perfusate. n=5-8 mice per group. Data: means±s.e.m. *: P<0.05, **: P<0.01, ***: P<0.001 between selected groups.
(§4) 24 hours after the last injection, mice were administered a CXCR4 antagonist (AMD3100, 5 mg/kg i.p), KC (30 μg/kg i.v.) or vehicle and blood was collected via cardiac puncture 60 minutes later for enumeration of circulating leukocyte, HPC, EPC, and stromal progenitor cell levels.
(§5) On day 5 following pre-treatment of growth factors, mice were anaesthetized and the femoral artery and vein exposed. The hind limb was isolated by occlusion of the external iliac artery, superficial epigastric and muscular branch. Polyethylene cannulae (Portex, London, UK) were immediately inserted into the femoral artery and vein as previously described (Martin et al., 2003; 2006; Wengner et al., 2008). Perfusion buffer was infused via the arterial cannula and removed from the venous cannula using a Minipuls peristaltic pump (Anachem, Luton, UK). The hind limb was perfused for an initial 2 minutes to remove remaining blood from the vasculature and then perfused for a further 60 min with vehicle alone or the CXCR4 antagonist (AMD3100, 0.1 mM), infused over the first 10 minutes using an infusion/withdrawal pump (Harvard Instruments, U.K.).
(§6) The perfusate was centrifuged and re-suspended in DMEM+20% FBS. In some experiments citrated blood was obtained via cardiac bleed and lysed for red blood cells. Bone marrow and perfusate cytospins, and blood smears were stained using DiffQuik for the enumeration of mononuclear cells, eosinophils, and neutrophils. Bone marrow, perfusate and lysed blood were then used for assays outlined below to enumerate HPCs (CFU-HPC), EPCs (CFU-EPC), SPCs (CFU-F).
(§7) 5×10^5 cells were added to Mesencult media including supplements (Stemcell Technologies). Dishes were incubated for 7 days before media was changed, and then incubated for a further 14 days before the enumeration of SPC colonies (CFU-F).
(§8) The total number of colony forming units mobilized was calculated according to the number of colonies per plate×by the total number of leukocytes mobilized/number of cells seeded.

EPCs [3] = test: Circulating CFU-EPC in blood; type: in vivo, mice; conditions: FIG. 20c
EPCs [4] = test: In situ perfusion of mouse hind limb, CFU-EPC in perfusate; type: in vivo, mice; conditions: for EPC mobilization from the bone marrow: agent alone (CXCR4 antagonist 0.1 mM infused 10 min; G-CSF or VEGF pre-treatment 4 days), FIG. 21c
HPCs [5] = conditions: cited from earlier work
[6] = tested on: haematopoietic progenitor cells (HPC); test: Example 1: HPC mobilisation, hind limb bone marrow perfusion and circulating blood, CFU-HPC assay; type: in vivo, mice
Description: Assay was performed in duplicate Mobilised cells were maintained in semi-solid methylcellulose cultures for 11 days before quantification of the number of CFU-HPCs.

HPCs [7] = test: In situ perfusion of mouse hind limb, CFU-HPC in perfusate; conditions: for HPC mobilization from the bone marrow: FIG. 21b
Description: 24 hours after the last injection, mice underwent perfusion of the right hind limb. […] The hind limb was then perfused for a further 50 minutes to allow collection of b, CFU-HPC; c, CFU-EPC; or d, CFU-SPC; via the femoral vein. CFU-HPC, CFU-EPC, and CFU-SPC are shown as total number of colonies collected in the perfusate. n=5-8 mice per group. Data: means±s.e.m. *: P<0.05, **: P<0.01, ***: P<0.001 between selected groups.
Female BALB/c mice were purchased from Harlan (Oxford, United Kingdom).
as §5
The perfusate was centrifuged and re-suspended in DMEM+20% FBS. […] Bone marrow, perfusate and lysed blood were then used for assays outlined below to enumerate HPCs (CFU-HPC), EPCs (CFU-EPC), SPCs (CFU-F).
5×10^4 cells were added to Methocult medium (Stem cell technologies) supplemented with specific cytokines and growth factors to enable formation of CFU-HPC. Mobilized cells were incubated for 11 days before quantification. Further characteristics of CFU-HPC colonies were obtained on day 12, namely the mean number of cells in each colony, and the mean colony area. The mean colony area (mm^2) was determined by image analysis using Scion Image analysis program (NIH). The cell number was determined by diluting colonies grown in Methocult into DMEM (to disperse the methylcellulose) and aspirating the colonies into a single cell suspension before obtaining a cell count.
as §8

SPCs [8] = test: Circulating CFU-SPC (CFU-F) in blood; conditions: agent alone (AMD3100 5 mg/kg i.p., blood at 60 min; G-CSF once daily for 4 days), FIG. 20d
Description: 24 hours after the last injection, mice were administered a CXCR4 antagonist (AMD3100 5 mg/kg i.p, closed bars) or vehicle (PBS, open bars). 60 minutes later, blood was taken for analysis of circulating: b, CFU-HPC; c, CFU-EPC; and d, CFU-SPC. CFU-HPC, CFU-EPC, and CFU-SPC are shown as number of colonies per ml blood. n=5-8 mice per group. Data: means±s.e.m. *: P<0.05, **: P<0.01, ***: P<0.001 between selected groups.
(§9) Female BALB/c mice were purchased from Harlan (Oxford, United Kingdom). […] 24 hours after the last injection, mice were administered a CXCR4 antagonist (AMD3100, 5 mg/kg i.p), KC (30 μg/kg i.v.) or vehicle and blood was collected via cardiac puncture 60 minutes later for enumeration of circulating leukocyte, HPC, EPC, and stromal progenitor cell levels.
The perfusate was centrifuged and re-suspended in DMEM+20% FBS. In some experiments citrated blood was obtained via cardiac bleed and lysed for red blood cells. Bone marrow and perfusate cytospins, and blood smears were stained using DiffQuik for the enumeration of mononuclear cells, eosinophils, and neutrophils. […]
The total number of colony forming units mobilized was calculated according to the number of colonies per plate×by the total number of leukocytes mobilized/number of cells seeded. […]

[9] = tested on: mesenchymal stem cells (MSC); test: Example 1: MSC mobilisation, hind limb bone marrow perfusion and circulating blood, CFU-MSC assay; type: in vivo, mice; conditions: perfusate and blood, FIGS. 9-12
Description: 4×10^5 cells were added to 3 ml Mesencult media including supplements (05501 and 05502 Stemcell Technologies). Assay was performed in duplicate.

HPCs [10] = test: Circulating CFU-HPC in blood; conditions: FIG. 20b
Description: a, Experimental protocol. […] 24 hours after the last injection, mice were administered a CXCR4 antagonist (AMD3100 5 mg/kg i.p, closed bars) or vehicle (PBS, open bars). 60 minutes later, blood was taken for analysis of circulating: b, CFU-HPC; c, CFU-EPC; and d, CFU-SPC. CFU-HPC, CFU-EPC, and CFU-SPC are shown as number of colonies per ml blood. n=5-8 mice per group. Data: means±s.e.m. *: P<0.05, **: P<0.01, ***: P<0.001 between selected groups.
as §4
In some experiments citrated blood was obtained via cardiac bleed and lysed for red blood cells. […] Bone marrow, perfusate and lysed blood were then used for assays outlined below to enumerate HPCs (CFU-HPC), EPCs (CFU-EPC), SPCs (CFU-F).
5×10^4 cells were added to Methocult medium (Stem cell technologies) supplemented with specific cytokines and growth factors to enable formation of CFU-HPC. Mobilized cells were incubated for 11 days before quantification.
as §8

HPCs [11] = test: In vitro chemotaxis of bone marrow HPCs towards SDF-1α; type: cell-based; conditions: bone marrow cells of mice treated 4 days; 30 nM SDF-1α, FIG. 23d, 23f
Description: (§1) Bone marrow was aspirated on day 5 and harvested cells were used to determine a, SDF-1α levels in bone marrow supernatant as determined by ELISA; b, % of bone marrow Lin^− Sca-1^+ cells expressing CXCR4; and c, % of bone marrow CD34^+ VEGFR2^+ cells expressing CXCR4. Harvested cells were also utilized in the following chemotaxis assays: d, number of HPCs; and e, EPCs undergoing chemotaxis towards 30 nM SDF-1α. Cells taken from bone marrow of mice treated with G-CSF (closed bars) or vehicle (PBS, open bars). f, number of HPCs; and g, EPCs undergoing chemotaxis towards 30 nM SDF-1α.

EPCs [12] = test: CFU-EPC bone marrow frequency; type: in vivo, mice; conditions: treated over 4 days, compared to controls, FIG. 22b
CXCR4 = test: Flow cytometry of CXCR4 expression on bone marrow HPCs and EPCs; type: in vivo, mice; conditions: treated 4 days
Description: as §1
(§2) For flow cytometric analysis, cells were re-suspended in FACS buffer. To identify neutrophils in the bone marrow, surface expression of the granulocyte marker Ly-6G/Ly6C (Gr-1) was determined. Neutrophils were identified as Gr-1^high positive cells with a characteristic high side scatter profile. HPCs residing in the BM were selected as being negative for lineage (Lin^−) markers: CD3e, CD11b, CD45R, Ly-76, and Gr-1 and positive for Sca-1 (Lin^− Sca-1^+ cells) (Gerber et al., 2002; Uchida, et al., 1997). EPCs residing in the BM were selected as being positive for both CD34 and VEGFR2 (CD34^+ VEGFR2^+ cells) (Asahara et al., 1997; Yoon et al., 2005). Furthermore, neutrophils were stained for the surface expression of CXCR2, whilst Lin^− Sca-1^+ cells and CD34^+ VEGFR2^+ cells were stained for the cell surface expression of CXCR4. Samples were then washed and then quantified on a FACSAria cell sorter (BD Biosciences, Oxford, United Kingdom) and analysed using FACSDiva software.

neutrophils = test: Leukocyte counts of bone marrow; type: in vivo, mice; conditions: treated 4 days, compared to controls, FIG. 24f
Description: 24 hours later these mice underwent perfusion of the right hind limb. CXCR4 antagonist (AMD3100 0.1 mM, closed bars) or vehicle (PBS, open bars) were then infused directly into the femoral artery for 10 minutes. The hind limb was then perfused for a further 50 minutes to allow collection of a, neutrophils via the femoral vein. […] The hind limb was again perfused for a further 50 minutes to allow b, collection of neutrophils.
The perfusate was centrifuged and re-suspended in DMEM+20% FBS. […] Bone marrow and perfusate cytospins, and blood smears were stained using DiffQuik for the enumeration of mononuclear cells, eosinophils, and neutrophils.

EPCs [13] = test: In vitro chemotaxis of bone marrow EPCs towards SDF-1α; type: cell-based; conditions: bone marrow cells of mice treated 4 days; 30 nM SDF-1α, FIG. 23e, 23g
Description: as §1

[14] = Total number of cells in the femurs; type: in vivo; conditions: treated over 4 days; not significantly different compared to control mice
Description: (§10) 24 hours after the last injection, bone marrow was aspirated for the enumeration of a, CFU-HPC bone marrow frequency; b, CFU-EPC bone marrow frequency; and c, CFU-SPC bone marrow frequency.
as §4, §6

SPCs [15] = test: CFU-SPC bone marrow frequency; type: in vivo, mice; conditions: treated over 4 days, compared to controls, FIG. 22c
Description: as §10, §9, §6, §7

HPCs and MSCs = conditions: Ripa et al. (2007) Circulation 116; cited from earlier work
SDF-1α = SDF-1α ELISA on bone marrow supernatants; type: in vivo, mice; conditions: treated once daily for 4 days, FIG. 23a
Description: as §1
Supernatant from bone marrow aspirates was analyzed for SDF-1α content as per the recommended protocol for the capture and detection antibody (MAB350 and BAF310 respectively. RnD systems).

CD34^+ VEGFR2^+ EPCs = test: PI staining, cell cycle status of CD34+ VEGFR2+ EPCs; type: in vivo, mice; conditions: treated 4 days, FIG. 25d
Description: as §2, with “Furthermore, neutrophils were stained for the surface expression of CXCR2, whilst Lin^− Sca-1^+ cells and CD34^+ VEGFR2^+ cells were stained for the cell surface expression of CXCR4.” left out
(§3) Lin^− Sca-1^+ cells and CD34^+ VEGFR2^+ cells were analysed to determine their cell cycling status using a propidium iodide (PI) stain. […] A dotplot of PI-Width against PI-Area was recorded. Aggregates of cells were detected as cells having a larger PI-W profile and were not included in the gate. […] To calculate the percentage of cells undergoing active cell cycling, a marker was set to exclude the G0/G1 peak and the percentage of cells in S/G2/M was calculated.

Lin^− Sca-1^+ HPCs = test: PI staining, cell cycle status of Lin- Sca-1+ HPCs; type: in vivo, mice; conditions: treated 4 days, FIG. 25c
Description: as §2, with “Furthermore, neutrophils were stained for the surface expression of CXCR2, whilst Lin^− Sca-1^+ cells and CD34^+ VEGFR2^+ cells were stained for the cell surface expression of CXCR4.” left out
as §3

[16] = agent alone (CXCR4 antagonist 0.1 mM infused 10 min; G-CSF or VEGF pre-treatment 4 days)
[17] = agent alone (AMD3100 5 mg/kg i.p., blood at 60 min; G-CSF or VEGF once daily for 4 days)
[18] = agent alone (CXCR4 antagonist 0.1 mM infused 10 min; G-CSF or VEGF pre-treatment 4 days), perfusate over 1 hour
[19] = growth factor pre-treatment 4 days, then CXCR4 antagonist infused

c1cc(CN2CCCNCCNCCCNCC2)ccc1CN1CCCNCCNCCCNCC1 [AMD3100, reference compound]
EPCs mobilised (number) ([1]; AMD3100 alone, 0.1 mM infused into hind limb, perfusate, FIG. 5): ~400
EPC mobilization ([1]; agent alone, FIGS. 5 and 6): stimulates the mobilization of EPCs
SPC mobilization from the bone marrow (SPCs [2]; [16]): HPCs and EPCs, but not SPCs were mobilized
circulating numbers of EPCs (EPCs [3]; [17]): increased circulating numbers of HPCs and EPCs
EPC mobilization from the bone marrow (EPCs [4]): HPCs and EPCs, but not SPCs were mobilized
circulating numbers of HPCs (HPCs [5]; AMD3100 alone, mice and humans): stimulates a rapid rise in circulating numbers of HPCs in both mice and humans
HPCs mobilised (number) ([6]; AMD3100 alone, 0.1 mM infused into hind limb, perfusate, FIG. 3): about 4000
HPC mobilization from the bone marrow (HPCs [7]; [18]): HPCs and EPCs, but not SPCs were mobilized
circulating SPCs (SPCs [8]): SPCs were not detected in the blood
MSC mobilization ([9]; agent alone): does not mobilize MSCs
circulating numbers of HPCs (HPCs [10]; [17]): increased circulating numbers of HPCs and EPCs

B1: G-CSF: Granulocyte-colony stimulating factor, recombinant murine cytokine from PeproTech (protein, UniProt P09920 31-208, looked up)
Granulocyte …: VPLVTVSALPPSLPLPRSFLLKSLEQVRKIQASGSVLLEQLCATYKLCHPEELVLLGHSLGIPKASLSGCSSQALQQTQCLSQLHSGLCLYQGLLQALSGISPALAPTLDLLQLDVANFATTIWQQMENLGVAPTVQPTQSAMPAFTSAFQRRAGGVLAISYLQGFLETARLALHHLA
EPC mobilization ([1]; G-CSF or VEGF 2.5 μg on 4 consecutive days, then AMD3100, FIGS. 5-8): not enhanced
SPC mobilization from the bone marrow (SPCs [2]; [16]): did not lead to the mobilization of SPCs
SPC mobilization, acute administration (SPCs [2]; growth factor (50 nM) infused acutely, alone or in combination with CXCR4 antagonist, FIG. 31c): neither growth factor, when administered acutely or in combination with the CXCR4 antagonist led to mobilization of SPCs
SPC mobilization from the bone marrow (SPCs [2]; [19]): no SPCs were mobilized
HPC chemotaxis towards SDF-1α (HPCs [11]): further increased migration of HPCs and EPCs to SDF-1α
circulating numbers of EPCs (EPCs [3]; growth factor pre-treatment over 4 days, then CXCR4 antagonist AMD3100 5 mg/kg i.p.): no such synergism (or even additive effect) was apparent for EPC mobilization
frequency/number of EPCs in the bone marrow (EPCs [12]): significant reduction in the number of bone marrow EPCs
CXCR4 expression on EPCs (CXCR4; CD34+ VEGFR2+ bone marrow cells, FIG. 23c): the expression of CXCR4 on EPCs was unchanged
CXCR4 expression on HPCs (CXCR4; Lin- Sca-1+ bone marrow cells, FIG. 23b): significant reduction
EPC mobilization from the bone marrow (EPCs [4]): enhanced the basal rate of HPC and EPC egress from the bone marrow
EPC mobilization, acute administration (EPCs [4]; growth factor (50 nM) infused into femoral artery for 10 minutes, alone, FIG. 31b): mobilized both HPCs and EPCs
numbers of neutrophils in the bone marrow (neutrophils): increased numbers of neutrophils in the bone marrow
HPC mobilization (HPCs [5]; chronic G-CSF treatment combined with acute treatment with AMD3100): synergistic effect
HPC mobilization ([6]; G-CSF or VEGF 2.5 μg on 4 consecutive days, then AMD3100 (0.1 mM infusion or 5 mg/kg i.p.), perfusate and blood, FIGS. 1-4): acts synergistically with AMD3100 to mobilize HPCs
EPC chemotaxis towards SDF-1α (EPCs [13]): further increased migration of HPCs and EPCs to SDF-1α
total number of cells in the femurs [14]: 1.41±0.28×10^7 cells/femur
frequency/number of SPCs in the bone marrow (SPCs [15]): an increase in the number of SPCs
stem cell mobilisation (HPCs and MSCs): mobilises HPCs but causes a decrease in MSCs
HPC mobilization from the bone marrow (HPCs [7]; [18]): enhanced the basal rate of HPC and EPC egress from the bone marrow
HPC mobilization, acute administration (HPCs [7]; growth factor (50 nM) infused into femoral artery for 10 minutes, alone, FIG. 31a): mobilized both HPCs and EPCs
HPC mobilization from the bone marrow (HPCs [7]; [19]): synergistic mobilization of HPCs
circulating SPCs (SPCs [8]): no SPCs were detected
SDF-1α levels in bone marrow supernatant (SDF-1α): significant reduction in levels of SDF-1α
percentage of CD34+ VEGFR2+ EPCs in S/G2/M phase of the cell-cycle (CD34^+ VEGFR2^+ EPCs): does not stimulate entry
MSC mobilization ([9]; G-CSF or VEGF 2.5 μg on 4 consecutive days, then AMD3100): does not mobilize MSCs
MSC mobilization ([9]; agent alone): does not mobilize MSCs
percentage of Lin- Sca-1+ HPCs in S/G2/M phase of the cell-cycle (Lin^− Sca-1^+ HPCs): does not stimulate entry
circulating numbers of HPCs (HPCs [10]; [17]): increased circulating numbers of HPCs
circulating numbers of HPCs (HPCs [10]; growth factor pre-treatment over 4 days, then CXCR4 antagonist AMD3100 5 mg/kg i.p., blood at 60 min): synergistically enhanced circulating numbers of HPCs
